Results taken from US20260266848A1, “COMPOSITIONS AND METHODS FOR DIAGNOSING AND TREATING DYSTONIA” (Duke University, priority 2023, published 2026).

Key:
DYT-TOR1A MEF EVs = assay: Quantitative LC-MS/MS proteomics of EVs from drug-treated DYT-TOR1A MEF cultures (ritonavir, salubrinal); format: cell-based, mouse; design: key to RTV Corrective Direction / RTV Corrective Direction, Grwd1 / RTV Corrective Direction, Srrm2 / RTV Corrective Direction, Rbm17 / RTV Corrective Direction, Dcaf8 / RTV Corrective Direction, Edil3 / RTV Corrective Direction, Timp3 / RTV Corrective Direction, Heatr3 / RTV Corrective Direction, Brd4 / RTV Corrective Direction, P3h4 / RTV Corrective Direction, Pacsin3 / RTV Corrective Direction, Naa50 / RTV Corrective Direction, Lpar6 / RTV Corrective Direction, Ndrg1 / RTV Corrective Direction, Kntc1 / RTV Corrective Direction, Cdk11b / RTV Corrective Direction, Sumo1 / RTV Corrective Direction, Lsm4 / RTV Corrective Direction, Hmga2 / RTV Corrective Direction, Cstf1 / RTV Corrective Direction, Tes / RTV Corrective Direction, Sbno1 / RTV Corrective Direction, Unc119b / RTV Corrective Direction, Cfdp1 / RTV Corrective Direction, Sec61b: YES = protein abundance effect opposite to DYT/WT; conditions: EV protein abundance; for RTV Corrective Direction: DYT + RTV (ritonavir) vs DYT, direction compared with DYT/WT; for DYT + RTV/DYT Cohen's d: ritonavir (RTV)-treated DYT vs DYT
WT MEF EVs = assay: Quantitative LC-MS/MS proteomics of EVs from ISRIB-treated WT MEF cultures; format: cell-based, mouse; design: key to ISRIB and DYT Parallel Direction / ISRIB and DYT Parallel Direction, Ctdsp1 / ISRIB and DYT Parallel Direction, Pcdh19 / ISRIB and DYT Parallel Direction, Tspan7 / ISRIB and DYT Parallel Direction, Myo1e / ISRIB and DYT Parallel Direction, Plpp3 / ISRIB and DYT Parallel Direction, Sh3bp4 / ISRIB and DYT Parallel Direction, Dnajc7 / ISRIB and DYT Parallel Direction, Drg1 / ISRIB and DYT Parallel Direction, Maea: YES = protein abundance effect similar to DYT/WT; conditions: EV protein abundance; for WT + ISRIB/WT Cohen's d: ISRIB-treated WT vs WT; for ISRIB and DYT Parallel Direction: WT + ISRIB vs WT, direction compared with DYT/WT

| Molecule | RTV Corrective Direction (DYT-TOR1A MEF EVs) | DYT + RTV/DYT Cohen's d (DYT-TOR1A MEF EVs) | WT + ISRIB/WT Cohen's d (WT MEF EVs) | ISRIB and DYT Parallel Direction (WT MEF EVs) |
| --- | --- | --- | --- | --- |
| Eef1e1 (protein, UniProt Q9D1M4 2-174, looked up) Eukaryotic translation …: AAAAELRLLEKSLGLKPGNKYSAQGERQIPVLQTNNGPSLMGLSTIATHLVKQASKEHLLGSTAEEKAMVQQWLEFRVTRVDGHSSKEDTQTLLKDLNSYLEDKVYLAGHNITLADILLYYGLHRFIVDLTVQEKEKYLNVSRWFCHIQHYPDIRQHLSSIVFIKNRLYANSH | YES | 16.90 | −3.65 | YES |
| Stxbp2 (protein, UniProt Q64324 1-593, looked up) Syntaxin-binding protein 2: MAPLGLKAVVGEKILSGVIRSVKKDGEWKVLIMDHPSMRILSSCCKMSDILAEGITIVEDINKRREPIPSLEAIYLLSPTEKSVQALIADFQGTPTFTYKAAHIFFTDTCPEPLFSELGRSRLAKAVKTLKEIHLAFLPYEAQVFSLDAPHSTYNLYCPFRAGERGRQLDALAQQIATLCATLQEYPSIRYRKGPEDTAQLAHAVLAKLNAFKADTPSLGEGPEKTRSQLLIMDRAADPVSPLLHELTFQAMAYDLLDIEQDTYRYETTGLSESREKAVLLDEDDDLWVELRHMHIADVSKKVTELLKTFCESKRLTTDKANIKDLSHILKKMPQYQKELNKYSTHLHLADDCMKHFKGSVEKLCSVEQDLAMGSDAEGEKIKDAMKLIVPVLLDASVPPYDKIRVLLLYILLRNGVSEENLAKLIQHANVQSYSSLIRNLEQLGGTVTNSAGSGTSSRLERRERMEPTYQLSRWSPVIKDVMEDVVEDRLDRKLWPFVSDPAPVPSSQAAVSARFGHWHKNKAGVEARAGPRLIVYIVGGVAMSEMRAAYEVTRATEGKWEVLIGSSHILTPTRFLDDLKTLDQKLEGVALP | YES | 1.82 | −0.96 | YES |
| Eif4b (protein, UniProt Q8BGD9 1-611, looked up) Eukaryotic translation …: MAASAKKKNKKGKTISLTDFLAEDGGTGGGSTYVPKPVSWADETDDLEGDVSTTWHSNDDDVYRAPPIDRSILPTAPRAAREPNIDRSRLPKSPPYTAFLGNLPYDVTEDSIKDFFRGLNISAVRLPREPSNPDRLKGFGYAEFEDLDSLLSALSLNEESLGNRRIRVDVADQAQDKDRDDRSFGRDRNRDSDKTDTDWRARPTTDSFDDYPPRRGDDSFGDKYRDRYDSDRYRDGYRDGYRDGPRRDMDRYGGRDRYDDRGSRDYDRGYDSRIGSGRRAFGSGYRRDDDYRGGGDRYEDRYDRRDDRSWSSRDDYSRDDYRRDDRGPPQRPRLNLKPRSAPKEDDASASTSQSSRAASIFGGAKPVDTAAREREVEERLQKEQEKLQRQLDEPKLDRRPRERHPSWRSEETQERERSRTGSESSQTGASATSGRNTRRRESEKSLENETLNKEEDCHSPTSKPPKPDQPLKVMPAPPPKENAWVKRSSNPPARSQSSDTEQPSPTSGGGKVAAVQPPEEGPSRKDGNKVDVVGATQGQAGSCSRGPGDGGSRDHWKDLDRKDGKKDQDSRSAPEPKKPEENPASKFSSASKYAALSVDGEDEDEGDDCTE | YES | −1.72 | 3.88 | YES |
| Ddx3x (protein, UniProt Q62167 2-662, looked up) ATP-dependent RNA helicase …: SHVAVENALGLDQQFAGLDLNSSDNQSGGSTASKGRYIPPHLRNREATKGFYDKDSSGWSSSKDKDAYSSFGSRGDSRGKSSFFGDRGSGSRGRFDDRGRGDYDGIGGRGDRSGFGKFERGGNSRWCDKSDEDDWSKPLPPSERLEQELFSGGNTGINFEKYDDIPVEATGNNCPPHIESFSDVEMGEIIMGNIELTRYTRPTPVQKHAIPIIKEKRDLMACAQTGSGKTAAFLLPILSQIYADGPGEALRAMKENGRYGRRKQYPISLVLAPTRELAVQIYEEARKFSYRSRVRPCVVYGGAEIGQQIRDLERGCHLLVATPGRLVDMMERGKIGLDFCKYLVLDEADRMLDMGFEPQIRRIVEQDTMPPKGVRHTMMFSATFPKEIQMLARDFLDEYIFLAVGRVGSTSENITQKVVWVEEIDKRSFLLDLLNATGKDSLTLVFVETKKGADSLEDFLYHEGYACTSIHGDRSQRDREEALHQFRSGKSPILVATAVAARGLDISNVKHVINFDLPSDIEEYVHRIGRTGRVGNLGLATSFFNERNINITKDLLDLLVEAKQEVPSWLENMAFEHHYKGSSRGRSKSSRFSGGFGARDYRQSSGASSSSFSSSRASSSRSGGGGHGGSRGFGGGGYGGFYNSDGYGGNYNSQGVDWWGN | YES | 2.24 | −1.08 | YES |
| Fgfr1 (protein, UniProt P16092 22-822, looked up) Fibroblast growth factor …: RPAPTLPEQAQPWGVPVEVESLLVHPGDLLQLRCRLRDDVQSINWLRDGVQLVESNRTRITGEEVEVRDSIPADSGLYACVTSSPSGSDTTYFSVNVSDALPSSEDDDDDDDSSSEEKETDNTKPNRRPVAPYWTSPEKMEKKLHAVPAAKTVKFKCPSSGTPNPTLRWLKNGKEFKPDHRIGGYKVRYATWSIIMDSVVPSDKGNYTCIVENEYGSINHTYQLDVVERSPHRPILQAGLPANKTVALGSNVEFMCKVYSDPQPHIQWLKHIEVNGSKIGPDNLPYVQILKTAGVNTTDKEMEVLHLRNVSFEDAGEYTCLAGNSIGLSHHSAWLTVLEALEERPAVMTSPLYLEIIIYCTGAFLISCMLGSVIIYKMKSGTKKSDFHSQMAVHKLAKSIPLRRQVTVSADSSASMNSGVLLVRPSRLSSSGTPMLAGVSEYELPEDPRWELPRDRLVLGKPLGEGCFGQVVLAEAIGLDKDKPNRVTKVAVKMLKSDATEKDLSDLISEMEMMKMIGKHKNIINLLGACTQDGPLYVIVEYASKGNLREYLQARRPPGLEYCYNPSHNPEEQLSSKDLVSCAYQVARGMEYLASKKCIHRDLAARNVLVTEDNVMKIADFGLARDIHHIDYYKKTTNGRLPVKWMAPEALFDRIYTHQSDVWSFGVLLWEIFTLGGSPYPGVPVEELFKLLKEGHRMDKPSNCTNELYMMMRDCWHAVPSQRPTFKQLVEDLDRIVALTSNQEYLDLSIPLDQYSPSFPDTRSSTCSSGEDSVFSHEPLPEEPCLPRHPTQLANSGLKRR | YES | −2.81 | 5.66 | YES |
| Col6a1 (protein, UniProt Q04857 20-1025, looked up) Collagen alpha-1(VI) chain: QDIQGSKAIAFQDCPVDLFFVLDTSESVALRLKPYGALVDKVKSFTKRFIDNLRDRYYRCDRNLVWNAGALHYSDEVEIIRGLTRMPSGRDELKASVDAVKYFGKGTYTDCAIKKGLEELLIGGSHLKENKYLIVVTDGHPLEGYKEPCGGLEDAVNEAKHLGIKVFSVAITPDHLEPRLSIIATDHTYRRNFTAADWGHSRDAEEVISQTIDTIVDMIKNNVEQVCCSFECQAARGPPGPRGDPGYEGERGKPGLPGEKGEAGDPGRPGDLGPVGYQGMKGEKGSRGEKGSRGPKGYKGEKGKRGIDGVDGMKGETGYPGLPGCKGSPGFDGIQGPPGPKGDAGAFGMKGEKGEAGADGEAGRPGNSGSPGDEGDPGEPGPPGEKGEAGDEGNAGPDGAPGERGGPGERGPRGTPGVRGPRGDPGEAGPQGDQGREGPVGIPGDSGEAGPIGPKGYRGDEGPPGPEGLRGAPGPVGPPGDPGLMGERGEDGPPGNGTEGFPGFPGYPGNRGPPGLNGTKGYPGLKGDEGEVGDPGEDNNDISPRGVKGAKGYRGPEGPQGPPGHVGPPGPDECEILDIIMKMCSCCECTCGPIDILFVLDSSESIGLQNFEIAKDFIIKVIDRLSKDELVKFEPGQSHAGVVQYSHNQMQEHVDMRSPNVRNAQDFKEAVKKLQWMAGGTFTGEALQYTRDRLLPPTQNNRIALVITDGRSDTQRDTTPLSVLCGADIQVVSVGIKDVFGFVAGSDQLNVISCQGLSQGRPGISLVKENYAELLDDGFLKNITAQICIDKKCPDYTCPITFSSPADITILLDSSASVGSHNFETTKVFAKRLAERFLSAGRADPSQDVRVAVVQYSGQGQQQPGRAALQFLQNYTVLASSVDSMDFINDATDVNDALSYVTRFYREASSGATKKRVLLFSDGNSQGATAEAIEKAVQEAQRAGIEIFVVVVGPQVNEPHIRVLVTGKTAEYDVAFGERHLFRVPNYQALLRGVLYQTVSRKVALG | YES | −1.96 | 0.14 | YES |
| Psmd4 (protein, UniProt O35226 1-376, looked up) 26S proteasome non-ATPase …: MVLESTMVCVDNSEYMRNGDFLPTRLQAQQDAVNIVCHSKTRSNPENNVGLITLANDCEVLTTLTPDTGRILSKLHTVQPKGKITFCTGIRVAHLALKHRQGKNHKMRIIAFVGSPVEDNEKDLVKLAKRLKKEKVNVDIINFGEEEVNTEKLTAFVNTLNGKDGTGSHLVTVPPGPSLADALISSPILAGEGGAMLGLGASDFEFGVDPSADPELALALRVSMEEQRQRQEEEARRAAAASAAEAGIATPGTEDSDDALLKMTINQQEFGRPGLPDLSSMTEEEQIAYAMQMSLQGTEFSQESADMDASSAMDTSDPVKEEDDYDVMQDPEFLQSVLENLPGVDPNNAAIRSVMGALASQATKDGKNDKKEEEKK | YES | −0.60 | 0.71 | YES |
